Source: patent US20090252732A1 (published 2009)
Residue numbers refer to the chain shown, from its start.

T1: mIL31-CEE: purified, recombinant mouse IL-31 (produced in BHK cells) fused at the C-terminus with a peptide … (mouse, UniProt Q6EAL8 31-163)
T1 construct: Biotinylated in the capture ELISA
T1 sequence: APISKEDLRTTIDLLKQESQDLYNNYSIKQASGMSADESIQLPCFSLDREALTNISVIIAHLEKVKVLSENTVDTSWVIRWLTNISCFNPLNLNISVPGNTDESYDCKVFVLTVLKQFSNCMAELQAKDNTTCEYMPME

T2: IL-31-CEE: purified, recombinant human IL-31 fused at the C-terminal with a peptide consisting of the … (human, UniProt Q6EBC2 24-164)
T2 sequence: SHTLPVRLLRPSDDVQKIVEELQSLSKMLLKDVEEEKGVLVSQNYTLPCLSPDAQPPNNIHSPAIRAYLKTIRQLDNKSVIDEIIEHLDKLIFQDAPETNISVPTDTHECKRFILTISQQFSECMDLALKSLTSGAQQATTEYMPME

T3: CEE peptide tag, sequence EYMPME
T3 construct: Tested only as the C-terminal tag of the other species' IL-31-CEE, not as a free peptide; also called CEE tag
T3 peptide: EYMPME

B1: mouse anti-human IL-31 mAb from clone 294.144.3.5 (ATCC Patent Deposit Designation PTA-6873) (antibody, mouse IgG1, V domains shown)
VH: QVQLQQSGPELMKPGASVKISCKATGYTFSTYWIEWIKQRPGHGLEWIGEILPGRGTTNYNAKFQGKATFTAETSSNTAYMQLSSLTSEDSAVYYCTTESKLGDDDYWQGTTLTVSS
VL: ENVLTQSPAIMSASPGERVTMTCSASSSVSYMHWYQQKSSNSPKLWIYDTTKLASGVPGRFSGSGSGNSYSLTISSMEAEDVATYFCFQGSEHPLTFGGGTTLEI
notes: Mouse IgG1
B2: mouse anti-human IL-31 mAb from clone 292.51.5.2 (antibody, mouse IgG1, V domains shown)
VH: EVQLVESGGDLVKPGGSLKLSCAASGFTFSSFVMSWVRQSPEKRLEWVATINSGGYYSFHPDSVKGRFTISRDNAKNTLYLQMSSLRSEDTAIYYCARQEGWSSAYFSYWGQGTLVTVSA
VL: DIVMTQSPSSLAMSVGQKVTMICKSSQSLLNSSNQKNYLAWYQQKPGHSPKLLVSFTSTRESGVPDRFIGSGSGTDFTLTITNMQAEDLADYFCQQHYDTPYTFGGGTKLEIR
notes: Mouse IgG1; assays used first round clone 292.51.5
B3: mouse anti-human IL-31 mAb from clone 292.105.4.1 (antibody, mouse IgG1, V domains shown)
VH: EVQLVESGGDLVKPGGSLKLSCAASGFTFSTYIMSWVRQSPEKRLEWVATINSGGYYTLYPDSVKGRFTISRDNAKNTLSLQLSSLRSEDTAMYFCARQEGWSSAWFAYWGQGTLVTVSA
VL: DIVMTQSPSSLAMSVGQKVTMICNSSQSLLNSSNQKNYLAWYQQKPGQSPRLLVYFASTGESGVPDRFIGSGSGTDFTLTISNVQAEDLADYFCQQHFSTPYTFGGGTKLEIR
notes: Mouse IgG1; assays used first round clone 292.105.4
B4: mouse anti-human IL-31 mAb from clone 292.109.4.4 (antibody, mouse IgG1, V domains shown)
VH: B3 VH
VL: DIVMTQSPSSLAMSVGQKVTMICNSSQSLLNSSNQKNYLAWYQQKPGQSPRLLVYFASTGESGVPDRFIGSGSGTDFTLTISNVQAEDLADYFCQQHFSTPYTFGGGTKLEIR
notes: Mouse IgG1; assays used first round clone 292.109.4
B5: mouse anti-human IL-31 mAb from clone 292.39.5.3 (antibody, mouse IgG1, V domains shown)
VH: B3 VH with A75V
VL: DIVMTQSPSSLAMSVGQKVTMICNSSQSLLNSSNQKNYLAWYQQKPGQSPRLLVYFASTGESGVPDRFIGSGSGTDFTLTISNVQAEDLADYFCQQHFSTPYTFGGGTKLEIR
notes: Mouse IgG1; assays used first round clone 292.39.5
B6: mouse anti-human IL-31 mAb from clone 292.118.6.4 (ATCC Patent Deposit Designation PTA-6830) (antibody, mouse IgG1, V domains shown)
VH: B3 VH with D10G, A24V, S30K, L59I, S80Y, L83M, F95Y
VL: DIVMTQSPSSLAMSVGQKVTMICNSSQSLLNSSNQKNYLAWYQQRPGQSPRLLVYFASTGESGVPDRFMGSGSGTDFTLTISNVQAEDLADYFCQQHFSTPYTFGGGTKLEIR
notes: Mouse IgG1; assays used first round clone 292.118.6
B7: mouse anti-human IL-31 mAb from clone 292.64.6.5.5 (antibody, mouse IgG1, V domains shown)
VH: B3 VH
VL: B6 VL with R45K, V54I, M69I
notes: Mouse IgG1; assays used first round clone 292.64.6
B8: mouse anti-human IL-31 mAb from clone 292.12.3.1 (ATCC Patent Deposit Designation PTA-6815) (antibody, mouse IgG1, V domains shown)
VH: QVQLQQSGAELARPGASVNLSCKASGYTLTRYWMQWVKQRPGQGLEWIGAIYPGDGDTRYSQKFKGKATLTADKSSSTAYMQLNNLASEDSAVYYCAFPDGYYAAPYGMDYWGQGTSVTVSS
VL: DIQMTQSPASLSASVGETVTITCRASGNIHNYLAWYQQKQGKSPQLLVYNAKTLADGVPSRFSGSRSETQYSLKINSLQPEDFGSYYCQHFWSTPWTFGGGTKLEIK
notes: Mouse IgG1, kappa; assays used supernatant of first round clone 292.12.3
B9: mouse anti-human IL-31 mAb from clone 292.72.3.1 (ATCC Patent Deposit Designation PTA-6816) (antibody, mouse IgG2a, V domains shown)
VH: QVQVQQSGAELARPGASVKLSCKASGYTLTRYWMQWVKQRPGQGLEWIGAIYPRDGDTRYSQKFKGKATLTADKSSTTAYMQLSSLASEDSAVYYCAYPDGSYAAPNGMEYWGQGSSVTVSS
VL: B8 VL with T5S, N28S, K52E, R66G, E68G, N76S, S85T, S93I
notes: Mouse IgG2a; assays used first round clone 292.72.3
B10: mouse anti-human IL-31 mAb from clone 292.84.1.6 (ATCC Patent Deposit Designation PTA-6871) (antibody, V domains shown)
VH: B8 VH with A50T, T69S, S77N, Y95F
VL: B8 VL with K42R
notes: Mouse IgG2a, kappa; Assays used first round clone 292.84.1

biological target: T1, mIL31-CEE: purified, recombinant mouse …; test: ELISA on plate bound mIL-31-CEE, first round clone supernatant

Q: Does B1 bind?
A: Result: no binding

Q: Does B2 bind?
A: Result: no binding

Q: Does B3 bind?
A: Result: no binding

Q: Does B4 bind?
A: Result: no binding

Q: Does B5 bind?
A: Result: no binding

Q: Does B6 bind?
A: Result: no binding

Q: Does B7 bind?
A: Result: no binding

Q: Does B8 bind?
A: Result: no binding

Q: Does B9 bind?
A: Result: no binding

Q: Does B10 bind?
A: Result: no binding

biological target: T2, IL-31-CEE: purified, recombinant human …; test: cell-based or functional assay

Q: Which “IC50 (ng/mL), cell-based neutralization (luciferase), IL-31-CEE at 300 pg/mL” value (shortened to “IC50 (ng/mL), cell-based neutralization”) does the source give for B2 here?
A: Its value is 6.48 ng/mL.

Q: And the “IC50 (pM), cell-based neutralization (luciferase), IL-31-CEE at 300 pg/mL” value (shortened to “IC50 (pM), cell-based neutralization”)?
A: Its value is 43.2 pM.

Q: With B3 as the binder, how does the “IC50 (ng/mL), cell-based neutralization” value read?
A: Its value is 9.14 ng/mL.

Q: And the “IC50 (pM), cell-based neutralization” value?
A: The value was 61 pM.

Q: What does the source list for B4?
A: IC50 (ng/mL), cell-based neutralization (luciferase), IL-31-CEE at 300 pg/mL: 8.29 ng/mL; IC50 (pM), cell-based neutralization (luciferase), IL-31-CEE at 300 pg/mL: 55.2 pM

Q: B5 was tested. Which “IC50 (ng/mL), cell-based neutralization” value did it give?
A: The value was 8.63 ng/mL.

Q: And the “IC50 (pM), cell-based neutralization” value?
A: The value was 57.5 pM.

Q: How did the “IC50 (ng/mL), cell-based neutralization” value turn out when B6 was run?
A: The value was 6.55 ng/mL.

Q: What about the “IC50 (pM), cell-based neutralization” value of the same binder?
A: The value was 43.7 pM.

Q: With B7 as the binder, how does the “IC50 (ng/mL), cell-based neutralization” value read?
A: The value was 10.1 ng/mL.

Q: What about the “IC50 (pM), cell-based neutralization” value of the same binder?
A: Its value is 67 pM.

Q: For B8, which “IC50 (ng/mL), cell-based neutralization” value is on record?
A: The value was 1.2 ng/mL.

Q: What about the “IC50 (pM), cell-based neutralization” value of the same binder?
A: Its value is 7.98 pM.

Q: For B9, which “IC50 (ng/mL), cell-based neutralization” value is on record?
A: Its value is 2 ng/mL.

Q: And the “IC50 (pM), cell-based neutralization” value?
A: Its value is 13.3 pM.

Q: Which results are given for B10?
A: IC50 (ng/mL), cell-based neutralization (luciferase), IL-31-CEE at 300 pg/mL: 1.08 ng/mL; IC50 (pM), cell-based neutralization (luciferase), IL-31-CEE at 300 pg/mL: 7.18 pM

Biological target: T3, CEE peptide tag, sequence EYMPME
Test: ELISA on plate bound mIL-31-CEE (tag tested as part of that protein)

Q: Does B1 bind?
A: Result: no binding

Q: Does B2 bind?
A: Result: no binding

Q: Does B3 bind?
A: Result: no binding

Q: Does B4 bind?
A: Result: no binding

Q: Does B5 bind?
A: Result: no binding

Q: Does B6 bind?
A: Result: no binding

Q: Does B7 bind?
A: Result: no binding

Q: Does B8 bind?
A: Result: no binding

Q: Does B9 bind?
A: Result: no binding

Q: Does B10 bind?
A: Result: no binding

biological target: T2, IL-31-CEE: purified, recombinant human …; test: capture ELISA: mAb of first round clone supernatant captured on anti-mouse IgG Fc, biotinylated IL-31-CEE
Method: These new supernatants were tested using the cell-based neutralization assay (serial 3-fold dilutions starting with neat supernatant and proceeding to a final 1:243 dilution) as well as a “capture” style ELISA assay similar to that used in the development of the rat anti-murine IL-31 mAbs with the following differences; 1) sheep anti-mouse IgG, Fc specific antibody (Jackson Immunoresearch) (1 ug/mL) as plate coating antibody, 2) plates blocked once with PBS-Tween+1% BSA for 1 hr, 3) a single titration of each supernatant added to wells (serial 3-fold dilutions starting with neat supernatant and proceeding to a final 1:2187 dilution), and 4) addition of biotinylated IL-31-CEE (3:1 molar ratio of biotin:protein), 200 ng/mL. This assay was felt to be more pertinent than the binding of antibody to plate bound IL-31-CEE as it assessed the ability of antibody to bind to IL-31-CEE in solution, a property essential to a good antibody for sandwich style ELISAs. It was in fact observed that a number of the master wells supernatants containing antibody that bound well to plate bound IL-31-CEE poorly recognized this molecule in solution.
To reduce the number of hybridomas going into further subcloning, two new assays were performed with exhausted supernatant from each of the selected first round clones. […]

Q: How did the EC50 turn out when B1 was run?
A: The EC50 was 13.4 ng/mL.

Q: With B7 as the binder, how does the EC50 read?
A: The EC50 was 3.4 ng/mL.
